Results on 2 substances are retold here after article PMC11808191.

For assay [1], the target named is recombinant protein HR212 (HR2–linker 1–HR1–linker 2–HR2) (SARS-CoV-2 Wuhan hu-1 strain). The experiment in a line: native gel or EMSA; native PAGE of purified HR212. Background: Mobility shift assays separate free from complexed probe on a gel.
For assay [2] the target is unchanged. Briefly: SPR; Biacore 3000; HR212 fixed to a flow cell of a CM5 sensor; HR1 at 12.5, 25, 50, 100, 200 nM flowed over; 25°C. On the technique in general: Surface plasmon resonance follows binding to a sensor surface in real time, without labels.

What is called stoichiometry N is a count of units in the complex or per binding partner. As to “recombinant protein HR212 (HR2–linker 1–HR1–linker 2–HR2)”, the stoichiometry N in assay [1] came to 3.

By Kd is commonly meant the equilibrium constant for the complex coming apart. In general, koff refers to the rate constant with which the complex falls apart. The term kon denotes a measure of how fast the partners come together. Turning to “HR1 (heptad repeat 1 domain of the SARS-CoV-2 spike S2 subunit) (domain or fragment)”, in assay [2], the Kd was 0.12 nM, the koff stood at 1.4e-05 s⁻¹ and the kon is 120000 M⁻¹ s⁻¹.
